Results on one substance are retold here after article PMC8055535.

In general, stoichiometry N refers to a count of units in the complex or per binding partner.

This assay deals with light-dependent protochlorophyllide oxidoreductase (LPOR), Zea mays (Zea mays (endogenous in maize etioplasts)). Kind of assay: cryo-EM structure; electron cryo-tomography and subtomogram averaging of membrane tubes from ruptured maize etioplasts, native membranes; low-salt pH 8.0 buffer with 150 mM trehalose in place of sorbitol; tube averages at 18.2 and 18.1 Å, sub-boxes of dimers at 9 Å.

Take “light-dependent protochlorophyllide oxidoreductase (LPOR), Zea mays (enzyme)”: the stoichiometry N is 2.
